Laboratory results: the DeepSol protein solubility set

Assay: soluble on expression in E. coli; label from the status in PepcDB or PDB records

| Sequence | soluble on expression in E. coli |
| --- | --- |
| SLEKLEFEDEAVEDSESGVYMRFMRSHKCYDIVPTSSKLVVFDTTLQVKKAFFALVANGVRAAPLWESKKQSFVGMLTITDFINILHRYYKSPMVQIYELEEHKIETWRELYLQETFKPLVNISPDASLFDAVYSLIKNKIHRLPVIDPISGNALYILTHKRILKFLQLFMSDMPKPAFMKQNLDELGIGTYHNIAFIHPDTPIIKALNIFVERRISALPVVDESGKVVDIYSKFDVINLAAEKTYNNLDITVTQALQHRSQYFEGVVKCNKLEILETIVDRIVRAEVHRLVVVNEADSIVGIISLSDILQALILTPAGAKQKETETE | soluble |
| MDQTVLDSAFNSPVDSGIAGTTTGSGSTTHFGVGTNFKVSVRSSSRSTDGTDSTDGANSDNVTGSTGSTPAHHSITNLNMALSQHSIDSATAASSTNPFPHFNQADLLNFHQNSLLPHHMFSQFGRYPQFEQKPDVGVLQQQMQMREAKPYKCTQCVKAFANSSYLSQHMRIHLGIKPFGPCNYCGKKFTQLSHLQQHIRTHTGEKPYKCKFTGCDKAFSQLSNLQSHSRCHQTDKPFKCNSCYKCFTDEQSLLDHIPKHKESKHLKIHICPFCGKSYTQQTYLQKHMTKHADRSKASNFGNDVVPADPFDPSLLSWNPMQGMGDNAHDSSSFNISSLTDQFAANTMIGSQSTNYNPAFQNSAFSQLFNIRNNRYLSEYPTSTKNGERAPGFNMITPLENIQRYNGSSSSATAVVTATGSAVVSSTPSSTSSSSAGSSSSQGGVFNPQSLINNMKNHSY | not soluble |
| MKFLILSVSAGGGHIHAAFALKKYIAKYLEGSQVKMLDTIKYLNPFLDKVLIGGYLKTLKVSPALFGKLYNFTEKDDNLASLSNKINEFMAYKLIPIIEDFNPDVIICTHPFPTEMVSILKSKESLKTPMLCILTDYAPHSFWIRPQVNSYVVSNSDMVDEMVRRGVNRENIYDLGIPVDPDFIRNFDKIETLNELNLSLNKKTILIMGGSLGIGKIEDIYEALSKSRANIQIIIITGNNKKLYSKLLELAEDSYVETRILGYTRDVNRYMQASDLLLTKPGGLTITEALICRVPLAVFSPIPGQEEKNEDFLLKHNLAISIRDSENCLGIIESLISNPELLQAMKDNCNKFSKPSSGKDICNLLINLINKNQKIDVNNADYRN | not soluble |
| MSKLDLGRVDLLSMLGNSSSAGVDTAKGVIPFSTSGATWAVPRLSEDGITSHFLRRRGYVTMTQGGSRDQNAAVRKILSLIIAYDIQTQACFFISNEESMRITMAETMGVKDRPNARTNSWAEVSDSDINRGIAKALKEGNLTLDENQKDGFMKLVHAFVADILAQSGHYKPVTSVTYFSAPIDMESDYLDPFSIAIIRDVLDDSPFSELRYDARAMSELEDRDVPITRFSRVMAQMGNAMVRNIMVLNEAAQRKLRGLAVVGEIVHGRVRAPVRYLNDSFIQTLRSNINFHLLTRTTPERWAQSWIQAFGSLKGWVDAINGIADATTEEEKKKLAMQTSMDLELLSDLTPLIRDAATSVEKFVTFAPLSFYQGLGSVTQIRALDSSTNLAAVIVRYAAKEINLIPAYQSFQVPTVDVGVKKTAIMDQRLSLQLPEFSEDQFFGMLEQRMQNMSDSEVAELVDRIAKGETPFGDVVKQLPGTSTLLVTNGYYMGGLLTNEDKIIPGDASVPALLYMQAASFASSVRFPPGEYPVFHHESSNGDVRLTDQVSADAQLSHSAVETANPLNFLVACNVSVHTPSIAIDIIEPMPDLTRRGTTEYVHKGEIKVAAIPSLPPKSADRKAQVSRETAKFERVLYKARKGGAQVAAPIDLESLFGIAVNLAVPTVKHVYSPDSKTKLALDIIKGLESEGDKAAATRLLMTLARAYTGTYSSLGLRRRDEITGIAAQPSDVAMQEFALQSGVQTLKAVAKHTGIMEVATIEMVEEKVRSLDDNRFYEIAAEVVLRALKGM | not soluble |
| MIYKNRLLKTIRYNVKATTISPLAIRDDEDNLKIDQLTGKVYIPGSSVAGAFRNYYENYIDKNSNENFNELFGGQKTGMSQIVFYDGYLVNDYVKEMISSRPGIKMDLKRMTVEVSDDAKKSGKKFKRRFLNEGLTFEFVFELNNYEDDAGKFEEKQRKFEELLKAFSIGDISLGSNKMIGYGRFRVDSISKSVFDFTNINDLLKYMLMETDSTEITQDILGREQETSKVRFKIKGKTVTPLLVKDETVRLSNESDGINIKDSRGNYIIPGSSIKGVIRSRAERLHRTFPCIGEEILTNIFGIESKKDDDGHISRLSCFDAVVKNPNKGIYNKIKIDYFTGGVMQGALMNDEVVMGDVEIECTFNTSGLNDYKREIGLLLLVLRDLCKEDLSIGSGYAVGRGYIKAETLELYDGEKLVLDFKSPNREVLKRFDSYISSLMNVG | soluble |
| TQPPQPDAQSPYSKRYDPTKDYPLSSPAGGMNNFSDVEPRGRLDEKAATDRADALAKNAQRNIEQKGIDSPEQYGRNYKQGTPFGERVKNLGEDIGSSANELGEGVVKGTQRGIENLKGNTQNAAEDATKNVQRGAEDAGRNVRRTADDAGNAVKRAVD | not soluble |
| MAEKKKEEKESKETEVFILKLENTTVTFTNPKLGDEVTIASLNLTNPTKDRYAFKIKCTSNQLFKIKSPVGYINPEESLTIPVYHYPATVIPENNKHYFVVYYIKAANTVKEKIPVRDLWKAAASSEGTRRVFIDFKKPELPPTEAEDGKMGDDKKKGKKDDKKEEKDGKKDEKKDGSDEEGKKDEGKGEKKEEKKDDKKDDKKDDKKEEKKEDGAKK | soluble |
| MASVASCDSRPSSDELPGDPSSQEEDEDYDFEDRVSDSGSYSSASSDYDDLEPEWLDSVQKNGELFYLELSEDEEESLLPETPTVNHVRFSENEIIIEDDYKERKKYEPKLKQFTKILRRKRLLPKRCNKKNSNDNGPVSILKHQSNQKTGVIVQQRYKDVNVYVNPKKLTVIKAKEQLKLLEVLVGIIHQTKWSWRRTGKQGDGERLVVHGLLPGGSAMKSGQVLIGDVLVAVNDVDVTTENIERVLSCIPGPMQVKLTFENAYDVKRETSHPRQKKTQSNTSDLVKLLWGEEVEGIQQSGLNTPHIIMYLTLQLDSETSKEEQEILYHYPMSEASQKLKSVRGIFLTLCDMLENVTGTQVTSSSLLLNGKQIHVAYWKESDKLLLIGLPAEEIELPSSAHTHGERN | soluble |
| KMPISAGVTVERKLNDYLGIETGLLYSNLRSEGQHLHYLGIPLKANITLMDTKKIDLYATVGGVADKCIAGAPDNSFKEEPIQLAVTAGIGITYKINDRLAVFAEPG | not soluble |
| MTTSLHRLEALAHPARVRIVRLLAELPDEETAKDPRCGTAYGVCFCHLKEKTGLSAPTVSHHLRILREAGLVEGVRVGRWTYYRLRPGALEAVARELLGLAQRARALEERSA | soluble |
| MDNHAEAHWQNGWLQSIRHTPSPNFSPRETGETVSLIVLHNISLPPFEYGTDAVEKLFANRLDPDGHPFFSLIHTLRVSSHFLIKRDGETVQFVSCDNMAYHAGVSSFGGREKCNAFSIGIELEGCDFEPFAEAQYRSLEALLDAICRHYPVTAVTGHQDIAPGRKTDPGHFFDWRRIREKGFLVDRNAV | not soluble |
| MGSDKIHHHHHHMKKSKHISQSELESYLWGAATLLRGYIDAGDYKQFIFPLLFYKRLCDVYDEELADALEESGGDQEYAALPEQHRFQIPEDAHWKATRTKVKNVGKAIQDALRAIETANPDTLYGVFGDAQWTNKDRLPDRMLRELIEHFSSQTLSLSNCPEDELGVGYEFLIKKFADDSGHTAAEFYTNRTVVHLMTEMLEPKPGESIYDPTCGSAGMLLSAVAHLKRQNKEWRNLRLFGQERNLLTSAIGRMNLFLHGIEDFRIVRGDTLANPAFVEGDRLMQFDVVLANPPYSIKQWDRDAWSADPWGRNIYGTPPQGRADYAFWQHIIKSMKAKSGRCAILFPHGVLFRNEESAMREKLVAHDVVECVLGLGPNLFYNSPMEACVVICRMNKPKERRNKVLFINAVNEVTRERAQSFLTDDHIQRIVAAYQAFGDEDGFARVVGNDEIREKASNLSIPLYVRAENGNGNGNGSTETVSLKQAIANWQESSMALRESMDGLLSSLEGGLHGS | not soluble |
| KTVTPEEKKLVAEKHVDELVQKALVALEEMRKLDQEQVDYIVAKASVAALDAHGELALHAFEETGRGVFEDKATKNLFACEHVVNNMRHTKTVGVIEEDDVTGLTLIAEPVGVVCGITPTTNPTSTAIFKSLISLKTRNPIVFAFHPSAQESSAHAARIVRDAAIAAGAPENCVQWITQPSMEATSALMNHEGVATILATGGNAMVKAAYSCGKPALGVGAGNVPAYVEKSANIRQAAHDIVMSKSFDNGMVCASE | not soluble |
| MGSDKIHHHHHHMSAHEMNHATPRLPAPLFVTGTDTGVGKTVVSLLLMRALFRRGMVPFYAKPMQTGCRDPYDTDSDAAFVYRHVPELAERDPAEAVGWCFRAPKAPLHAARDERNGVETEDLMRRLAILRATHACLVLEGAGGLMVPFTADALCVDCIRAADARPVLVARDGLGTVNHTLLSVEAMTRRGVTPAGIVFVASGKRPTPSDLVHDNMEAVAMLSGISVSGIVPPILDFHAPPEAALTVADAVIDAALGL | not soluble |
| MYLACLAKFSQNVELRKMLFRTQDMYLVEASGNDAIWGNGIWKEDKRSDDVANWHGTNYLGEILDRIRGELIGKPEFAAEKEAVQLESLEQRIQMLMA | not soluble |
| MIKKYTCKNGVRIVMENIPTVRSVAIGIWIHAGSRNENEKNNGISHFLEHMFFKGTETRSAREIAESFDSIGGQVNAFTSKEYTCYYAKVLDEHAKYALDVLADMFFNSTFDEEELKKEKNVVCEEIKMYEDAPDDIVHDMLTKATYETHPLGYPILGTEETLNTFTGDTLRQYIKDHYTPENVVVSIAGNIDEAFLQTVEQYFGSYEGTTNREQVHSPIFHFNKVARKKETEQAHLCLGYKGLQMGHEDIYNLIVLNNVLGGSMSSRLFQEVREQRGLAYSVFSYHSSYEDTGMLTLYGGTGSQQLDTLYETMQETLETLKNTGITEKELINSKEQLKGNLMLSLESTNSRMSRNGKNELLLRKHRSLDEIIESVNTVTKENVDELIRNMFTDEFSAALISPDGKLPKGIKL | not soluble |
| MGSDKIHHHHHHMDIEDLRTFVAVADAGGVSAAARRLGISKSIVSRRLFRIEAELGVQLLARTTRGAALTEAGITFRDHAARASAEIDTARETILPAGELHGRLRIAMPLTFGPTHFAPVLAEMARQHPQLHIHTSYSDRFVDLIAEGFDCAIRGAYLQDSNLIAKRVGPIHGKLVASPAYIKAHGSPEMVEQLVNHQALMQGTEAWQFMDGDRIVTVQPQGKFKADSATALAAAAAAGLGIAWLPDCITHAYLASGALVPIMTRYPVPPGAVYVVRPPSQHPARKVRVLTEMLTEYFKRTPELWGVDG | not soluble |
| AKIYDKNGELVKTLDNGQRHEHVNIKDVPKDMKNAVLATEDNRFYQHGALDYKRLFGAIGKNLTGGFGSQGASTLTQQVVKDSFLTQQKSIGRKAQEAYLSYRLEQEYSKDEIFQVYMNKIYYSDGVTGIKAAAKYYFNKDMKDLNLAEEAYLAGLPQVPNLYNIYNNP | not soluble |
| MAHHHHHHMLKSSIVLLRRGKPRPRAGMFPEKYRRVPTLLKPQQGGQQYFNEFLIRSANDALEAQQQGYGSAFRVGGSGAARILADGNATAADGIHDGEISSVHPRLPQADIDGVLQRSRAETIQAELKQLVAQDGFISQRGFNERLWYEQEHHRLRTHGDGVEASPSEVAATAAASSSTAEAVSATGEGRAVPERILGDDYFQSKFGYSLLKGRSPDASAVADNVKAYAQLDLWGEMPMYSRDFVFLYLVSRRRNTYAVAYDYDGKRLLPTYTAGNRGLKGGDRGFRGDGSTDNGHQVTSMYLNDLLPKIREARAASGRPLGRGEKIDLVVRVMGFYNGRQGAVRAVQDRSADFRVRYLEDVTPFPLNGPKMPRGVFR | not soluble |
